Results published in patent EP0614981A1.

molecular target: IFNγ (UniProt P01579); experiment: cell-based or functional assay
Sequence of UniProt P01579 (P01579 24-166 limits assumed): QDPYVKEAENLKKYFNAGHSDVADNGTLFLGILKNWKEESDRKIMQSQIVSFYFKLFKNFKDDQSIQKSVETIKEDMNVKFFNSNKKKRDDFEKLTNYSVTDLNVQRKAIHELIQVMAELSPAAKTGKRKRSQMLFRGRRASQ

What does the source list for “hIFNγR-HG1 (from UniProt P01857 99-330) (Fc fusion)”?
IC50 nM, inhibition of IFNγ antiviral activity (CPE, WISH cells, EMC virus): 26 nM; IC50 µg/ml, inhibition of IFNγ antiviral activity (CPE, WISH cells, EMC virus): 4.4 µg/mL

For “hIFNγR-HG3 (from UniProt P01860 99-377) (Fc fusion)”, which IC50 nM, inhibition of IFNγ antiviral activity (CPE, WISH cells, EMC virus) is on record?
The IC50 nM, inhibition of IFNγ antiviral activity (CPE, WISH cells, EMC virus) was 11 nM.

And the IC50 µg/ml, inhibition of IFNγ antiviral activity (CPE, WISH cells, EMC virus)?
Its IC50 µg/ml, inhibition of IFNγ antiviral activity (CPE, WISH cells, EMC virus) is 2 µg/mL.

Which results are given for soluble human IFNγ receptor (shIFNγR)?
IC50 nM, inhibition of IFNγ antiviral activity (CPE, WISH cells, EMC virus): 216 nM; IC50 µg/ml, inhibition of IFNγ antiviral activity (CPE, WISH cells, EMC virus): 6.7 µg/mL
